Experimental data taken from IntAct's records for PubMed 17595167.

B1: PAN2-PAN3 deadenylation complex subunit PAN3 (Homo sapiens), Q58A45 (parent)
chain: MNSGGGLPPPSAAASPSSSSLAAAVAVVAPPGVGGVPGGAAVGVKLKYCRYYAKDKTCFYGEECQFLHEDPAAGAAPGLGLHSNSVPLALAGAPVAGFPPGAVAGGGAGPPPGPKKPDLGDPGTGAAAGGGGSSGGLDGPRLAIPGMDGGALTDTSLTDSYFSTSFIGVNGFGSPVETKYPLMQRMTNSSSSPSLLNDSAKPYSAHDPLTSPASSLFNDFGALNISQRRKPRKYRLGMLEERLVPMGSKARKAKNPIGCLADRCKSGVPINMVWWNRVTENNLQTPNPTASEFIPKGGSTSRLSNVSQSNMSAFSQVFSHPSMGSPATAGLAPGMSLSAGSSPLHSPKITPHTSPAPRRRSHTPNPASYMVPSSASTSVNNPVSQTPSSGQVIQKETVGGTTYFYTDTTPAPLTGMVFPNYHIYPPTAPHVAYMQPKANAPSFFMADELRQELINRHLITMAQIDQADMPAVPTEVDSYHSLFPLEPLPPPNRIQKSSNFGYITSCYKAVNSKDDLPYCLRRIHGFRLVNTKCMVLVDMWKKIQHSNIVTLREVFTTKAFAEPSLVFAYDFHAGGETMMSRHFNDPNADAYFTKRKWGQHEGPLPRQHAGLLPESLIWAYIVQLSSALRTIHTAGLACRVMDPTKILITGKTRLRVNCVGVFDVLTFDNSQNNNPLALMAQYQQADLISLGKVVLALACNSLAGIQRENLQKAMELVTINYSSDLKNLILYLLTDQNRMRSVNDIMPMIGARFYTQLDAAQMRNDVIEEDLAKEVQNGRLFRLLAKLGTINERPEFQKDPTWSETGDRYLLKLFRDHLFHQVTEAGAPWIDLSHIISCLNKLDAGVPEKISLISRDEKSVLVVTYSDLKRCFENTFQELIAAANGQL

Variants of: B1
Conditions: with pabp1_human PABPC1, P11940
Sequence of pabp1_human PABPC1, P11940 (P11940 whole entry): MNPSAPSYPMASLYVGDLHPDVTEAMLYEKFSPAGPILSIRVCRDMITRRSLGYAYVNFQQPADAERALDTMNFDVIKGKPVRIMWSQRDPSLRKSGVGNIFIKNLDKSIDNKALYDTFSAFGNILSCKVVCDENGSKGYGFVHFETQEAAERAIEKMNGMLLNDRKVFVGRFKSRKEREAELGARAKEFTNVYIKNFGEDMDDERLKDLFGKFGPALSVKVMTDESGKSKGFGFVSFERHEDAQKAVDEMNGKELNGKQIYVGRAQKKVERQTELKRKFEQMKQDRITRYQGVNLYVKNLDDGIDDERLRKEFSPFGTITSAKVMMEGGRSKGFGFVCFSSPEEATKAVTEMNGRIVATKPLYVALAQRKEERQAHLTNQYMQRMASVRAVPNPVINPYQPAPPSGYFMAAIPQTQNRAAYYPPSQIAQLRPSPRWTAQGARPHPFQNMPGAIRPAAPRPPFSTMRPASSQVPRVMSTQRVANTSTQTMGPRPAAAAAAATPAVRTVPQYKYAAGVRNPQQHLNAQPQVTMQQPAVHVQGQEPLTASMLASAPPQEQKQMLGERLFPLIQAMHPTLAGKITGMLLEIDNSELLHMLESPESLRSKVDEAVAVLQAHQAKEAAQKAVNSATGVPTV

Variant	effect of a mutation on the interaction
F293A	decreasing interaction
